This note sets out measurements from patent EP4786489A1, “IL-22 MUTANT, PREPARATION METHOD THEREFOR, AND USE THEREOF” (Nanjing Novoacine Biotechnology Co., Ltd., priority 2023, dated 2025).

Common to all, as to test: cell-based or functional assay
The target of test [1] is heterodimeric receptor complex (IL-22Rα/IL-10Rβ) (human) (UniProt Q8N6P7).
Test [2] addresses T1, heterodimeric receptor complex (IL-22Rα/IL-10Rβ) (human, UniProt Q8N6P7 16-574; Q08334 20-325).
T1 sequence (looked up) 1: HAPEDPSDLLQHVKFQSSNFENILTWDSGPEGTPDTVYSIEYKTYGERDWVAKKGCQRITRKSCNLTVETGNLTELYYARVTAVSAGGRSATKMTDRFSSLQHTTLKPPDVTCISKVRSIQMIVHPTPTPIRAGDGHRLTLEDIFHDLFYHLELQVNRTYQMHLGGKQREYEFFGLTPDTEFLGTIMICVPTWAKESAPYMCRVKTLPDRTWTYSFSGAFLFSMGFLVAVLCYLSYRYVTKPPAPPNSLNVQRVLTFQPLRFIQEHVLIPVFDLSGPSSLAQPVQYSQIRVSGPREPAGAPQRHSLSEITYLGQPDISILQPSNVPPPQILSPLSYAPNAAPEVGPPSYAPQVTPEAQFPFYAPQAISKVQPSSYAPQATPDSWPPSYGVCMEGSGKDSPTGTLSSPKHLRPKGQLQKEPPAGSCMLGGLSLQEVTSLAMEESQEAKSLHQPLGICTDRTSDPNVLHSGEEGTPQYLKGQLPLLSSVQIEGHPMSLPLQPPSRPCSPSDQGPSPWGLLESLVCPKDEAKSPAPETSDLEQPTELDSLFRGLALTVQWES
T1 sequence (looked up) 2: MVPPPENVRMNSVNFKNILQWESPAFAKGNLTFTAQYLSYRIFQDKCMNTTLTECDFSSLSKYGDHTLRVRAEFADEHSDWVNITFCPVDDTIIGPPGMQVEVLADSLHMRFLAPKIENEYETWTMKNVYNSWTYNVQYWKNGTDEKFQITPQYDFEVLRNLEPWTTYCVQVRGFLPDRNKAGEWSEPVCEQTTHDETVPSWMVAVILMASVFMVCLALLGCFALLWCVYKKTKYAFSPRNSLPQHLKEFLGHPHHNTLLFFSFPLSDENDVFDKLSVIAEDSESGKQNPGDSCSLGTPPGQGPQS

Test [3] deals with T1, heterodimeric receptor complex …. This is another data set of the same source.
The target is the same in test [4]. The source holds these as a separate data set.
The target is the same in test [5]. The source holds these as a separate data set.
Test [6] has the same target. This is another data set of the same source.

Positions count from the first letter of the chain named.

In the case of IL-22-Fc (Fc fusion), in test [1], the EC50 for STAT1 Activation (nM); pSTAT1 FACS, HT-29 cells stood at 49.9 nM; the EC50 for STAT3 Activation (nM); pSTAT3 FACS, HT-29 cells came to 12.9 nM; the HaCaT: HT29 ratio (higher is better); p-STAT3 EC50, FACS turned out to be 5.8; the STAT1/STAT3 EC50 ratio (higher is better); FACS, HT29 cells was 3.2. For the same molecule, in test [1], the STAT1/STAT3 EC50 ratio (higher is better); FACS, HT-29 cells was 3.9; the STAT1 Activation EC50 (nM); pSTAT1 FACS, HT29 cells is 12.6 nM; the STAT3 Activation EC50 (nM); pSTAT3 FACS, HT29 cells was 3.9 nM; the p-STAT3 EC50 (nM), HaCaT; FACS was 22.7 nM.

B1: hB3-his (ligand)
chain: APISSHCRLDKENFQQPYITNRTFMLAKEASLADNNTDVRLIGEKLFHGVSMSERCYLMKQVLNFTLEEVLFPQSDRFQPYMAEVVPFLAALSNALSTCHIEGDDLHIQRNVQKLKDTVKKLGESGEIKAIGELDLLFMSLRNACIHHHHHH
Take B1: in test [2], the “STAT1/STAT3 Ratio (higher is better); ELISA, COLO205 cells” value was 2.34; the “STAT1 Activation EC50 (nM); p-STAT1 ELISA, COLO205 cells” value amounted to 17.4 nM; the “STAT1 Activation, Fold change relative to wt IL-22; p-STAT1 ELISA, COLO205 cells” value worked out at 18.5 fold; the “STAT3 Activation EC50 (nM); p-STAT3 ELISA, COLO205 cells” value was determined as 0.525 nM. Also, in test [2], the “STAT3 Activation, Fold change relative to wt IL-22; p-STAT3 ELISA, COLO205 cells” value came out at 7.92 fold. Further, in test [3], the “EC50 for STAT1 Activation (nM); pSTAT1 FACS, HT-29 cells” value stood at 279 nM; the “EC50 for STAT3 Activation (nM); pSTAT3 FACS, HT-29 cells” value was 4.13 nM; the “STAT1/STAT3 EC50 ratio (higher is better); FACS, HT-29 cells” value turned out to be 67.5. In test [4], the “STAT1/STAT3 EC50 ratio (higher is better); FACS, HT29 cells” value (shortened to “STAT1/STAT3 EC50 ratio … HT29 cells”) turned out to be 9.3; the “STAT1 Activation EC50 (nM); pSTAT1 FACS, HT29 cells” value (from here on “STAT1 Activation EC50 … HT29 cells”) was 23 nM; the “STAT3 Activation EC50 (nM); pSTAT3 FACS, HT29 cells” value (shortened to “STAT3 Activation EC50 … HT29 cells”) came to 2.47 nM.

B2: wt IL-22 (ligand)
chain: APISSHCRLDKSNFQQPYITNRTFMLAKEASLADNNTDVRLIGEKLFHGVSMSERCYLMKQVLNFTLEEVLFPQSDRFQPYMQEVVPFLARLSNRLSTCHIEGDDLHIQRNVQKLKDTVKKLGESGEIKAIGELDLLFMSLRNACI
Take B2: in test [5], the “EC50 fold change of the test candidate relative to wt IL-22; STAT3 reporter gene assay, COLO205/SIE cells (Assay1)” value was 1 fold; the “EC50 fold change of the test candidate relative to wt IL-22; STAT3 reporter gene assay, COLO205/SIE cells (Assay2)” value came to 1 fold; the “EC50 for STAT3 Activation (nM); STAT3 reporter gene assay, COLO205/SIE cells (Assay1)” value is 0.00529 nM; the “EC50 for STAT3 Activation (nM); STAT3 reporter gene assay, COLO205/SIE cells (Assay2)” value came to 0.00303 nM. Also, in test [2], the “STAT1/STAT3 Ratio (higher is better); ELISA, COLO205 cells” value came out at 1; the “STAT1 Activation EC50 (nM); p-STAT1 ELISA, COLO205 cells” value turned out to be 0.939 nM; the “STAT1 Activation, Fold change relative to wt IL-22; p-STAT1 ELISA, COLO205 cells” value was 1 fold; the “STAT3 Activation EC50 (nM); p-STAT3 ELISA, COLO205 cells” value was 0.0663 nM. Moreover, the “STAT3 Activation, Fold change relative to wt IL-22; p-STAT3 ELISA, COLO205 cells” value in test [2] came out at 1 fold.

B3: 80K-PEG-IL22-P120C (ligand)
chain: B2 chain with P87C
modifications: Cys at position 87 (SEQ ID NO:1 numbering) conjugated to 80 kDa PEG-maleimide (thioether linkage)
In the case of B3, in test [4], the “STAT1/STAT3 EC50 ratio … HT29 cells” value stood at 29; the “STAT1 Activation EC50 … HT29 cells” value stood at 574 nM; the “STAT3 Activation EC50 … HT29 cells” value stood at 19.8 nM.

B4: 80K-PEG-IL22-P50C (ligand)
chain: B2 chain with P17C
modifications: Cys at position 17 (SEQ ID NO:1 numbering) conjugated to 80 kDa PEG-maleimide (thioether linkage)
Turning to B4, in test [4], the “STAT1/STAT3 EC50 ratio … HT29 cells” value is 3.3; the “STAT1 Activation EC50 … HT29 cells” value was determined as 62.3 nM; the “STAT3 Activation EC50 … HT29 cells” value was 18.9 nM.

B5: 60K-PEG-IL22-P50C (ligand)
chain: B2 chain with P17C
modifications: Cys at position 17 (SEQ ID NO:1 numbering) conjugated to 60 kDa PEG-maleimide (thioether linkage)
As to B5, in test [4], the “STAT1/STAT3 EC50 ratio … HT29 cells” value worked out at 2.4; the “STAT1 Activation EC50 … HT29 cells” value is 134 nM; the “STAT3 Activation EC50 … HT29 cells” value came out at 55.5 nM.

B6: 40K-PEG-IL22-P120C (ligand)
chain: B2 chain with P87C
modifications: Cys at position 87 (SEQ ID NO:1 numbering) conjugated to 40 kDa PEG-maleimide (thioether linkage)
Regarding B6, in test [4], the “STAT1/STAT3 EC50 ratio … HT29 cells” value is 9.1; the “STAT1 Activation EC50 … HT29 cells” value came out at 55.3 nM; the “STAT3 Activation EC50 … HT29 cells” value was 6.05 nM.

B7: 40K-PEG-IL22-D109C (ligand)
chain: B2 chain with D76C
modifications: Cys at position 76 (SEQ ID NO:1 numbering) conjugated to 40 kDa PEG-maleimide (thioether linkage)
B7: in test [4], the “STAT1/STAT3 EC50 ratio … HT29 cells” value was 31.3; the “STAT1 Activation EC50 … HT29 cells” value stood at 10.9 nM; the “STAT3 Activation EC50 … HT29 cells” value came to 0.348 nM.

B8: 40K-PEG-IL22-P50C (ligand)
chain: B2 chain with P17C
modifications: Cys at position 17 (SEQ ID NO:1 numbering) conjugated to 40 kDa PEG-maleimide (thioether linkage)
Turning to B8, in test [4], the “STAT1/STAT3 EC50 ratio … HT29 cells” value came to 7.8; the “STAT1 Activation EC50 … HT29 cells” value amounted to 369 nM; the “STAT3 Activation EC50 … HT29 cells” value amounted to 47.5 nM.

B9: 60K-PEG-IL22-P120C (ligand)
chain: B2 chain with P87C
modifications: Cys at position 87 (SEQ ID NO:1 numbering) conjugated to 60 kDa PEG-maleimide (thioether linkage)
In the case of B9, in test [4], the “STAT1/STAT3 EC50 ratio … HT29 cells” value worked out at 7.6; the “STAT1 Activation EC50 … HT29 cells” value turned out to be 86.2 nM; the “STAT3 Activation EC50 … HT29 cells” value was found to be 11.4 nM. In addition, in test [6], the “HaCaT: HT29 ratio (higher is better); p-STAT3 EC50, FACS” value was 37.7 and the “p-STAT3 EC50 (nM), HaCaT; FACS” value amounted to 428 nM.

B10: 80K-PEG-IL22-D109C (ligand)
chain: B2 chain with D76C
modifications: Cys at position 76 (SEQ ID NO:1 numbering) conjugated to 80 kDa PEG-maleimide (thioether linkage)
For B10, in test [4], the “STAT1/STAT3 EC50 ratio … HT29 cells” value worked out at 7.1; the “STAT1 Activation EC50 … HT29 cells” value turned out to be 7 nM; the “STAT3 Activation EC50 … HT29 cells” value turned out to be 0.984 nM.

B11: 60K-PEG-IL22-D109C (ligand)
chain: B2 chain with D76C
modifications: Cys at position 76 (SEQ ID NO:1 numbering) conjugated to 60 kDa PEG-maleimide (thioether linkage)
Regarding B11, in test [4], the “STAT1/STAT3 EC50 ratio … HT29 cells” value came to 16.3; the “STAT1 Activation EC50 … HT29 cells” value turned out to be 9.41 nM; the “STAT3 Activation EC50 … HT29 cells” value stood at 0.577 nM. In test [6], the “HaCaT: HT29 ratio (higher is better); p-STAT3 EC50, FACS” value was 12.9 and the “p-STAT3 EC50 (nM), HaCaT; FACS” value came to 7.44 nM.
